According to patent US20240415975A1 (ABTIS, published 2024):
Several values for one entry are separate records, joined by “and”; a condition that tells them apart may be missing. Equal entries are not always repeated.

B1: ADC-A (MMAE conjugated with antibody-A) (antibody, human IgG1, kappa, V domains shown)
VH: QVQLVESGGGVVQPGRSLRLSCAASGFSLTTYGVHWVRQAPGKGLEWVAVIWAGGSTNYNSALMSRFTISRDNSKNTLYLQMNSLRAEDTAVYYCARAAYYGNGLDYWGQGTMVTVSS
VL: DIVMTQSPLSLPVTPGEPASISCKSSQTLLNSGNQKNYLTWYLQKPGQSPQLLIYWASTGESGVPDRFSGSGSGTDFTLKISRVEAEDVGVYYCQNAYFYPFTFGGGTKVEIKR
modifications: payload (PEG8)2-BG-MMAE linked through a linker to lysine residue 246 or 248 (EU numbering) of each heavy chain (DAR 2)
notes: which of K246 or K248 carries the payload is not resolved
B2: anti-Claudin 18.2 antibody (Anti-CLDN18.2 mAb) (antibody-A) (antibody, human IgG1, kappa, V domains shown)
VH: QVQLVESGGGVVQPGRSLRLSCAASGFSLTTYGVHWVRQAPGKGLEWVAVIWAGGSTNYNSALMSRFTISRDNSKNTLYLQMNSLRAEDTAVYYCARAAYYGNGLDYWGQGTMVTVSS
VL: DIVMTQSPLSLPVTPGEPASISCKSSQTLLNSGNQKNYLTWYLQKPGQSPQLLIYWASTGESGVPDRFSGSGSGTDFTLKISRVEAEDVGVYYCQNAYFYPFTFGGGTKVEIKR
notes: two heavy and two light chains; Elsewhere called an IgG1 type anti-CLDN18.2 antibody; Obtained from GenScript ProBio

Assays:
[1] = molecular target: Claudin 18.2 protein (CLDN18.2), expressed on cells (UniProt P56856); assay: cell-based ELISA (OD 450 nm) on SNU601 cells (CLDN18.2+); regression in GraphPad Prism
[2] = molecular target: Claudin 18.2 protein (CLDN18.2), expressed on cells (UniProt P56856); assay: cell-based ELISA (OD 450 nm) on MIA PaCa-2-CLDN18.2 cells; regression in GraphPad Prism
[3] = molecular target: Claudin 18.2 protein (CLDN18.2), expressed on cells (UniProt P56856); assay: cell-based ELISA (OD 450 nm) on PATU8988S cells (CLDN18.2+); regression in GraphPad Prism
[4] = molecular target: CLDN18.2 virus-like particle (VLP) in which the claudin 18.2 protein (CLDN18.2) was expressed (UniProt P56856); assay: indirect ELISA (OD 450 nm) on plate coated with CLDN18.2 VLP; regression in GraphPad Prism
[5] = molecular target: T1, Claudin 18.2 protein (CLDN18.2), expressed on cells (UniProt P56856-2 1-261); assay: cell-based or functional assay
[6] = molecular target: T2, Claudin 18.1 protein (CLDN18.1), expressed on CHO-K1 cells (UniProt P56856 1-261, limits assumed); assay: cell-based ELISA on CHO-K1 cells transiently transfected with CLDN18.1
T2 construct: whole, on cells; also called CLDN18.1~CHO-K1
Description: (§1) The measured results were used for regression analysis in GraphPad PRISM® 9.0 software to calculate EC50 and Bmax.

[7] = molecular target: T3, CLDN18.2 virus-like particle (VLP) in which the claudin 18.2 protein (CLDN18.2) was expressed (UniProt P56856 1-261); assay: indirect ELISA on plate coated with CLDN18.2 VLP; regression in GraphPad Prism (row labelled Kd, text says EC50)
T3 construct: Bought reagent; also called CLDN18.2 VLP; CLDN18.2~VLP

[8] = molecular target: T1, Claudin 18.2 protein (CLDN18.2), …; assay: cell-based ELISA on CHO-K1 cells transiently transfected with CLDN18.2; regression in GraphPad Prism (row labelled Kd, text says EC50)
Description: as §1

Molecule | Bmax [1] | Bmax [2] | Bmax [3] | Bmax [4] | IC50 (nM), cell viability (CellTiter-Glo), MIA PaCa-2 (CLDN18.2+) [5] [nM] | IC50 (nM), cell viability (CellTiter-Glo), NUGC4 (CLDN18.2+) [5] [nM] | IC50 (nM), cell viability (CellTiter-Glo), PATU8988S (CLDN18.2+) [5] [nM] | IC50 (nM), cell viability (CellTiter-Glo), SNU601 (CLDN18.2+) [5] [nM] | binding result [6] | Kd [7] | Kd [8]
Zolbetuximab (antibody-B) | 1.7 | 3.05 | 1.21 | 2.13 |  |  |  |  |  |  | 
B1 |  |  |  |  | 0.101 | 1.59 | 0.279 | 0.095 | no binding | 0.0527 µg/mL and 0.351 nM | 0.123 µg/mL and 0.82 nM
B2 |  |  |  |  |  |  |  |  | no binding | 0.0319 µg/mL and 0.212 nM | 0.0636 µg/mL and 0.424 nM
